{"source": "patent US20030143656A1", "about": "(published 2003)", "binders": {"B1": {"name": "PIFtide (peptide)", "peptide": "REPRILSEEEQEMFRDFDYIADWC"}, "B2": {"name": "GST-PDK1 K115A (enzyme, not shown: a dimerising Fc or GST; small tags and cut ends)", "chain": "MARTTSQLYDAVPIQSSVVLCSCPSPSMVRTQTESSTPPGIPGGSRQGPAMDGTAAEPRPGAGSLQHAQPPPQPRKKRPEDFKFGKILGEGSFSTVVLARELATSREYAIKILEARHIIKENKVPYVTRERDVMSRLDHPFFVKLYFTFQDDEKLYFGLSYAKNGELLKYIRKIGSFDETCTRFYTAEIVSALEYLHGKGIIHRDLKPENILLNEDMHIQITDFGTAKVLSPESKQARANSFVGTAQYVSPELLTEKSACKSSDLWALGCIIYQLVAGLPPFRAGNEYLIFQKIIKLEYDFPEKFFPKARDLVEKLLVLDATKRLGCEEMEGYGPLKAHPFFESVTWENLHQQTPPKLTAYLPAMSEDDEDCYGNYDNLLSQFGCMQVSSSSSSHSLSASDTGLPQRSGSNIEQYIHDLDSNSFELDLQFSEDEKRLLLEKQAGGNPWHQFVENNLILKMGPVDKRKGLFARRRQLLLTEGPHLYYVDPVNKVLKGEIPWSQELRPEAKNFKTFFVHTPNRTYYLMDPSGNAHKWCRKIQEVWRQRYQSHPDAAVQ"}, "B3": {"name": "GST-PDK1 L155A (enzyme, human, UniProt O15530 1-556, looked up)", "chain": "B2 chain with A115K, L155A", "notes": "range 1-556; not shown: N-terminal GST tag, pEBG2T vector"}, "B4": {"name": "GST-PDK1 Q150A (enzyme, human, UniProt O15530 1-556, looked up)", "chain": "B2 chain with A115K, Q150A", "notes": "as for B3"}, "B5": {"name": "full length S6K1 mutant in which Thr412 and all five phosphorylated C-terminal residues were mutated to acidic residues (enzyme, human, UniProt P23443 1-525, looked up)", "chain": "MRRRRRRDGFYPAPDFRDREAEDMAGVFDIDLDQPEDAGSEDELEEGGQLNESMDHGGVGPYELGMEHCEKFEISETSVNRGPEKIRPECFELLRVLGKGGYGKVFQVRKVTGANTGKIFAMKVLKKAMIVRNAKDTAHTKAERNILEEVKHPFIVDLIYAFQTGGKLYLILEYLSGGELFMQLEREGIFMEDTACFYLAEISMALGHLHQKGIIYRDLKPENIMLNHQGHVKLTDFGLCKESIHDGTVTHTFCGTIEYMAPEILMRSGHNRAVDWWSLGALMYDMLTGAPPFTGENRKKTIDKILKCKLNLPPYLTQEARDLLKKLLKRNAASRLGAGPGDAGEVQAHPFFRHINWEELLARKVEPPFKPLLQSEEDVSQFDSKFTRQTPVDSPDDSTLSESANQVFLGFEYVAPSVLESVKEKFSFEPKIRDPRRFIGDPREPVDPVKFDPGDFWGRGASASTANPQTPVEYPMETSGIEQMDVTMSGEASAPLPIRQPNSGPYKKQAFPMISKRPEHLRMNL", "notes": "mature"}}, "key": {"GST-PDK1 (wild type)": {"target": "T1, GST-PDK1 (wild type) (human, UniProt O15530 1-556)", "T1 sequence (looked up)": "B2 chain with A115K", "test": "cell-based or functional assay"}, "GST-PDK1 K115A": {"target": "B2", "test": "cell-based or functional assay"}, "GST-PDK1 Q150A": {"target": "B4", "test": "cell-based or functional assay"}, "GST-PDK1 L155A": {"target": "B3", "test": "cell-based or functional assay"}, "PIFtide [1]": {"target": "B1", "test": "method not stated (reference mark lost)"}, "PIFtide [2]": {"target": "B1", "test": "method not stated (unpublished data)"}, "GST-PDK1 L155E": {"target": "T2, GST-PDK1 L155E (human, UniProt O15530 1-556)", "T2 construct": "range 1-556; not shown: N-terminal GST tag, pEBG2T vector", "T2 sequence (looked up)": "B2 chain with A115K, L155E", "test": "binding experiment not described (presumably pull-down)", "method": "Binding of PDK1 to SGK1 and S6K1. For the data presented in FIG. 22, 293 cells were cotransfected with 10 μg of the wild type or mutant PDK1 plasmid and 10 μg of either the wild type or mutant S6K1 or SGK1. 36 h post-transfection the cells were lysed in 0.6 ml of Buffer A and the lysates were cleared by centrifugation at 13 000×g for 10 min at 2° C., and 0.5 ml of supernatant was incubated for 2 h at 4° C. with 30 μl of glutathione-Sepharose. The beads were washed twice in Buffer A containing 0.5 M NaCl, followed by two further washes in Buffer A. The beads were resuspended in 30 μl Laemmli Sample Buffer and subjected to SDS polyacrylamide gel electrophoresis. The gels were either stained with Coomassie blue, or analysed by immunoblotting with either anti-Flag or anti-Myc antibodies (described below).\nInteraction of S6K1 and SGK1 with PDK1. […] We therefore tested whether this could be explained by the inability of full length S6K1 to interact with PDK1. To test this hypothesis we coexpressed in 293 cells GST-PDK1 together with full length S6K1, fill length S6K1[T412E] and the C-terminal truncated forms of these mutants (S6K1-T2 and S6K1-T2[T412E]) which have Flag epitope tags. Glutathione-Sepharose “pull-downs” of GST-PDK1 from these extracts were immunoblotted for the presence of Flag epitope tagged S6K1. […] S6K1-T2[T412E] interacted moderately better with GST-PDK1 compared to S6K1-T2."}}, "note": "Numbering of substitutions follows the chain as printed. Numbers in names are those of the source.", "data": [{"binder": "REPRILSEEEQEMFRDFAYLADWC", "note": "[D978A-PIFtide]", "values": [{"measurement": "fold decrease in activation of PDK1 towards T308tide, against wild type PIFtide", "setting": "GST-PDK1 (wild type)", "result": 8, "unit": "fold"}]}, {"binder": "B1", "values": [{"measurement": "inhibition by 2 µM PIFtide of the activation of S6K1-T2[T412E] and SGK1[T422D] by the PDK1 mutant", "setting": "GST-PDK1 K115A", "result": "~50", "unit": "%"}, {"measurement": "inhibition by 35 µM PIFtide of the activation of S6K1-T2[T412E] and SGK1[T422D] by the PDK1 mutant", "setting": "GST-PDK1 K115A", "result": "> 95", "unit": "%"}, {"measurement": "inhibition by 2 µM PIFtide of the activation of S6K1-T2[T412E] and SGK1[T422D] by the PDK1 mutant", "setting": "GST-PDK1 Q150A", "result": "~50", "unit": "%"}, {"measurement": "inhibition by 35 µM PIFtide of the activation of S6K1-T2[T412E] and SGK1[T422D] by the PDK1 mutant", "setting": "GST-PDK1 Q150A", "result": "> 95", "unit": "%"}, {"measurement": "stimulation of the PDK1 mutant towards T308tide by PIF", "setting": "GST-PDK1 Q150A", "result": "~2", "unit": "fold"}, {"measurement": "increase of PDK1 activity towards T308tide", "setting": "GST-PDK1 (wild type)", "result": "≤ 4", "unit": "fold"}, {"measurement": "increase of TM50 (heat inactivation of GST-PDK1)", "setting": "GST-PDK1 (wild type)", "result": "8 to 10", "unit": "°C"}, {"measurement": "inhibition by 2 µM PIFtide of the activation of S6K1[T412E] by wild type PDK1", "setting": "GST-PDK1 (wild type)", "result": "> 20", "unit": "fold"}, {"measurement": "inhibition by 2 µM PIFtide of the activation of S6K1-T2[T412E] and SGK1[T422D] by the PDK1 mutant", "setting": "GST-PDK1 L155A", "result": "~50", "unit": "%"}, {"measurement": "inhibition by 35 µM PIFtide of the activation of S6K1-T2[T412E] and SGK1[T422D] by the PDK1 mutant", "setting": "GST-PDK1 L155A", "result": "> 95", "unit": "%"}]}, {"binder": "B2", "values": [{"measurement": "fold decrease in affinity for PIFtide", "setting": "PIFtide [1]", "result": "~10", "unit": "fold"}]}, {"binder": "B3", "values": [{"measurement": "fold decrease in affinity for PIFtide", "setting": "PIFtide [2]", "result": "~10", "unit": "fold"}]}, {"binder": "B4", "values": [{"measurement": "fold decrease in affinity for PIFtide", "setting": "PIFtide [1]", "result": "~10", "unit": "fold"}]}, {"binder": "B5", "values": [{"measurement": "binding result", "setting": "GST-PDK1 L155E", "result": "no binding"}]}]}
